Experimental data: article PMC12084609, “Structural insights into small-molecule agonist recognition and activation of complement receptor C3aR” (The EMBO Journal, 2025)
Residue numbers refer to the chain shown, from its start. Where “and” joins values, the source holds several entries; their conditions need not be identical. Identical values can stand only once.

Legend:
Type in all cases: cell-based
C3aR R161^ECL2A = target: T1, C3aR R161^ECL2A (Homo sapiens, UniProt Q16581, R161A); test: GloSensor-based cAMP assay, C3aR mutant R161A; settings: R161ECL2A, single replicates
T1 construct: expressed in transfected cells; host or cells: HEK293T
T1 sequence (Q16581 1-482 R161A): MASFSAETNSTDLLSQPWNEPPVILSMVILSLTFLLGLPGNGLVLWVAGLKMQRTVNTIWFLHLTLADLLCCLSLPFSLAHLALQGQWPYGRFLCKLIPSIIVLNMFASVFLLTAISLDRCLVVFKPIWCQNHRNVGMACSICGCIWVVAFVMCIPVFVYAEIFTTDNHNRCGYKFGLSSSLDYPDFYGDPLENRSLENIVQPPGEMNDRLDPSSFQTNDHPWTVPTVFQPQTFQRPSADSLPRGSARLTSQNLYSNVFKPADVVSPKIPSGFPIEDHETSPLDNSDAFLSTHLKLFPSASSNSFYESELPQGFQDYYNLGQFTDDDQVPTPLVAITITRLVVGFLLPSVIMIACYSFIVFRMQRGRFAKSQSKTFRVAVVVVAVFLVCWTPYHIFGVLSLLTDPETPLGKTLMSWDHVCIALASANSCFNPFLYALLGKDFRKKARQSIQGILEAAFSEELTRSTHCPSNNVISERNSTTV
Method: (§1) HEK293T cells were seeded on 6-well plates (NEST) and transfected with pGlosensor™-22F plasmids (Promega) and pcDNA3.1 plasmids encoding C3aR or its mutants an with N-terminal FLAG tag. After 48 h, cells were detached with Accutase solution (Sigma-Aldrich) and washed with PBS, and resuspended in assay buffer (CO2-independent medium with 0.5 mg mL^−1D-luciferin). 100,000–200,000 cells were seeded on 96-well white bottom plates (SPL) and incubated at 37 °C for 45 min followed by 45 min incubation at room temperature. After 90 min of incubation, basal luminescence signals were recorded. In total, 25 μl of test ligand with various concentrations and 1 μM Forskolin (Sigma-Aldrich) were treated to the cells and luminescence signals were measured by Tristar 2 LB 942 multimode reader (Berthold). […] Relative luminescence unit (%) was calculated with the signal of wells treated with vehicle as 0% and the signal of wells treated with 1 μM Forskolin as 100% (DiRaddo et al, [2014]). Nonlinear regression was performed using a three-parameter logistic equation.

C3aR D417^7.35A = target: T2, C3aR D417^7.35A (Homo sapiens, UniProt Q16581, D417A); test: GloSensor-based cAMP assay, C3aR mutant D417A; settings: D4177.35A, single replicates
T2 construct: expressed in transfected cells; host or cells: HEK293T
T2 sequence (Q16581 1-482 D417A): T1 sequence (Q16581 1-482 R161A) with A161R, D417A
Method: as §1

C3aR H418^7.36A = target: T3, C3aR H418^7.36A (Homo sapiens, UniProt Q16581, H418A); test: GloSensor-based cAMP assay, C3aR mutant H418A; settings: for cAMP response (% Forskolin): single replicates
T3 construct: expressed in transfected cells; host or cells: HEK293T
T3 sequence (Q16581 1-482 H418A): T1 sequence (Q16581 1-482 R161A) with A161R, H418A
Method: as §1

C3a: anaphylatoxin C3a, natural peptide ligand of C3aR (a 77-amino acid peptide), Sigma-Aldrich
cAMP response (% Forskolin) (C3aR R161^ECL2A; Log[C3a (M)] -7): 95.22 % Forskolin and 113.23 % Forskolin and 84.95 % Forskolin | cAMP response (% Forskolin) (C3aR R161^ECL2A; Log[C3a (M)] -8): 93.59 % Forskolin and 100.34 % Forskolin and 90.06 % Forskolin | cAMP response (% Forskolin) (C3aR R161^ECL2A; Log[C3a (M)] -9): 101.94 % Forskolin and 107.61 % Forskolin and 95.04 % Forskolin | cAMP response (% Forskolin) (C3aR R161^ECL2A; Log[C3a (M)] -10): 94.48 % Forskolin and 102.25 % Forskolin and 94.73 % Forskolin | cAMP response (% Forskolin) (C3aR R161^ECL2A; Log[C3a (M)] -11): 103.03 % Forskolin and 121.75 % Forskolin and 96.66 % Forskolin | cAMP response (% Forskolin) (C3aR R161^ECL2A; Log[C3a (M)] -12): 95.52 % Forskolin and 105.32 % Forskolin and 102.35 % Forskolin | cAMP response (% Forskolin) (C3aR D417^7.35A; Log[C3a (M)] -7): 91.99 % Forskolin and 99.64 % Forskolin and 84.06 % Forskolin | cAMP response (% Forskolin) (C3aR D417^7.35A; Log[C3a (M)] -8): 90.00 % Forskolin and 93.47 % Forskolin and 96.64 % Forskolin | cAMP response (% Forskolin) (C3aR D417^7.35A; Log[C3a (M)] -9): 98.82 % Forskolin and 114.21 % Forskolin and 106.52 % Forskolin | cAMP response (% Forskolin) (C3aR D417^7.35A; Log[C3a (M)] -10): 109.81 % Forskolin and 104.73 % Forskolin and 103.88 % Forskolin | cAMP response (% Forskolin) (C3aR D417^7.35A; Log[C3a (M)] -11): 98.54 % Forskolin and 110.53 % Forskolin and 108.95 % Forskolin | cAMP response (% Forskolin) (C3aR D417^7.35A; Log[C3a (M)] -12): 97.82 % Forskolin and 107.45 % Forskolin and 101.02 % Forskolin | Mean Diff. of pIC50, WT vs. H418A (C3aR H418^7.36A; Dunnett's multiple comparisons test, WT minus mutant): 0.008 | cAMP response (% Forskolin) (C3aR H418^7.36A; H418A, Log[C3a (M)] -7): 25.95 % Forskolin and 18.34 % Forskolin and 14.90 % Forskolin and 10.15 % Forskolin | cAMP response (% Forskolin) (C3aR H418^7.36A; H418A, Log[C3a (M)] -8): 26.38 % Forskolin and 19.33 % Forskolin and 14.37 % Forskolin and 9.75 % Forskolin | cAMP response (% Forskolin) (C3aR H418^7.36A; H418A, Log[C3a (M)] -9): 37.00 % Forskolin and 39.46 % Forskolin and 38.86 % Forskolin and 18.94 % Forskolin | cAMP response (% Forskolin) (C3aR H418^7.36A; H418A, Log[C3a (M)] -10): 73.80 % Forskolin and 84.21 % Forskolin and 84.87 % Forskolin and 53.38 % Forskolin | cAMP response (% Forskolin) (C3aR H418^7.36A; H418A, Log[C3a (M)] -11): 92.78 % Forskolin and 94.37 % Forskolin and 96.55 % Forskolin and 91.56 % Forskolin | cAMP response (% Forskolin) (C3aR H418^7.36A; H418A, Log[C3a (M)] -12): 97.08 % Forskolin and 98.99 % Forskolin and 94.98 % Forskolin and 97.61 % Forskolin | ΔpIC50 ± SE of Diff. (C3aR H418^7.36A; H418^7.36A relative to WT C3aR): -0.008 ± 0.011 | IC50 (C3aR H418^7.36A; H418^7.36A, dose-response plot, read-out: IC50): 3.34 nM | pIC50 (Replicate) (C3aR H418^7.36A; H418^7.36A, individual replicates): 8.55 and 8.43 and 8.42 (2×) and 8.38 and 8.70 | pIC50 ± SEM (Mean) (C3aR H418^7.36A; H418^7.36A, mean of independent experiments): 8.49 | cAMP response (% Forskolin) (C3aR H418^7.36A; H4187.36A, Log[C3a (M)] -7): 18.06 % Forskolin and 18.98 % Forskolin and 15.70 % Forskolin and 12.14 % Forskolin and 13.13 % Forskolin and 12.07 % Forskolin and 13.03 % Forskolin | cAMP response (% Forskolin) (C3aR H418^7.36A; H4187.36A, Log[C3a (M)] -8): 24.13 % Forskolin and 25.40 % Forskolin and 25.03 % Forskolin and 14.18 % Forskolin and 21.72 % Forskolin and 18.92 % Forskolin and 21.43 % Forskolin | cAMP response (% Forskolin) (C3aR H418^7.36A; H4187.36A, Log[C3a (M)] -9): 81.20 % Forskolin and 92.26 % Forskolin and 92.38 % Forskolin and 94.46 % Forskolin and 94.81 % Forskolin and 73.56 % Forskolin and 81.94 % Forskolin | cAMP response (% Forskolin) (C3aR H418^7.36A; H4187.36A, Log[C3a (M)] -10): 97.67 % Forskolin and 104.16 % Forskolin and 99.86 % Forskolin and 96.43 % Forskolin and 93.22 % Forskolin and 100.34 % Forskolin and 90.38 % Forskolin | cAMP response (% Forskolin) (C3aR H418^7.36A; H4187.36A, Log[C3a (M)] -11): 100.38 % Forskolin and 103.33 % Forskolin and 102.03 % Forskolin and 95.26 % Forskolin and 97.84 % Forskolin and 98.73 % Forskolin and 97.27 % Forskolin | cAMP response (% Forskolin) (C3aR H418^7.36A; H4187.36A, Log[C3a (M)] -12): 93.49 % Forskolin and 89.91 % Forskolin and 97.60 % Forskolin and 95.65 % Forskolin and 97.38 % Forskolin and 104.40 % Forskolin and 97.91 % Forskolin
